Test results reported in patent US8791249B2, “Nucleic acid encoding humanized c-kit antibody” (Amgen Inc., priority 2006, dated 2014).
Where “and” joins values, the source holds several entries; their conditions need not be identical. Equal entries are not always repeated. Entries after “also recorded” stand apart in the source; their conditions may differ.

Assays:
[1] = Preliminary PK study after single IV or SC administration
Experimental: A preliminary PK study was conducted to compare hSR-1 IgG2 and hSR-1 aIgG1 PK in male cynomolgus monkeys after a single IV or SC administration at 3 mg/kg.

c-Kit in MO7e cells = assay: SCF-mediated c-Kit phosphorylation and internalization in MO7e cells; format: cell-based
[2] = In vivo tolerability in non-human primates; settings: up to 30 mg/kg once weekly for 4 weeks or up to 150 mg/kg subcutaneously once weekly for 2 weeks
c-Kit [3] = molecular target: T1, c-Kit (Homo sapiens, UniProt P10721); assay: Cell based assays of c-Kit signaling (functional potency, agonism, internalization); set-up: endogenous in cells; host or cells: MO7e cells; cultured human mast cells derived from bone marrow CD34+ cells; primary human CD34+ CD117+ bone marrow cells; UT-7 cells; settings: all cell based assays tested
T1 sequence (P10721 26-976): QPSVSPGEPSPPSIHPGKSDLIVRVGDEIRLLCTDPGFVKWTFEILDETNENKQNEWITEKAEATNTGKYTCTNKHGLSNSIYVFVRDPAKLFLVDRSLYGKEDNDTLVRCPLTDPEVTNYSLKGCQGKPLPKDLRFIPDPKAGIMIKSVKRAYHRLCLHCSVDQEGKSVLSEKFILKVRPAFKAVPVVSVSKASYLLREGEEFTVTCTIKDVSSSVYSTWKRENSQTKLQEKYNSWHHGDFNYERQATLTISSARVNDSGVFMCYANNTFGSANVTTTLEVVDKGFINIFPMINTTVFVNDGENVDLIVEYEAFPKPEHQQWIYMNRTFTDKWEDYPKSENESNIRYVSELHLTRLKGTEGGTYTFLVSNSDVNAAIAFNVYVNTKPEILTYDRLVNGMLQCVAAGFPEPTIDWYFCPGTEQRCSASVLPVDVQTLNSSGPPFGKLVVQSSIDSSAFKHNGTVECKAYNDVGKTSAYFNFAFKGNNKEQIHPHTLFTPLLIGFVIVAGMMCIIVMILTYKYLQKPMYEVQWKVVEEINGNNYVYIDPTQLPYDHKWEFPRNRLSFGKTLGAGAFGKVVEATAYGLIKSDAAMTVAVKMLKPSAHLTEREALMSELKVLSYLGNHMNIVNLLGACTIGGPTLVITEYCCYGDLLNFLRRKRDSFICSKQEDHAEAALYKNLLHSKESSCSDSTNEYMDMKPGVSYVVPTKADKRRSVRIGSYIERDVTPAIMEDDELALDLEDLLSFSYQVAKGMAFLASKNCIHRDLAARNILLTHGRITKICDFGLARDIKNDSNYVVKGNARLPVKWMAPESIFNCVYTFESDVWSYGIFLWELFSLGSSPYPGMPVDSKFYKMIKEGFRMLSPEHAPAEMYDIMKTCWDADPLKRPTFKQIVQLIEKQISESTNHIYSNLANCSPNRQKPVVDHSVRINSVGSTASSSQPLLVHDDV
Excerpt: These properties are potentially undesirable since the aim of a therapeutic strategy is to apoptotically deplete mast cells and precurors by blocking the survival SCF signal and to avoid mast cell activation that could lead to anaphylactoid reactions in vivo. When the mouse SR-1 CDR regions were inserted in the human IgG1 framework, affinity and functional potency were also maintained, but this background is less desirable due to the complement activation and cell mediated cytotoxicity often found with this isotype of antibody.
The aglycosylated IgG1 isotype was chosen to avoid effector function and cell killing through bystander effects. […] It also depletes mast cells in vivo as expected.

[4] = test system: human CD34+, CD 117+ (c-Kit) bone marrow cells; assay: CD34+ bone marrow cell CFU assay (SCF/GM-CSF colony formation), human; format: cell-based
Experimental: (§1) The SR-1 monoclonal antibody was selected based on its equivalent functional potency at human and monkey c-Kit in the CD34+ bone marrow cell CFU assay (inhibition at 1.0 ug/mL), and its monkey PK.

[5] = Effector function (CDC, ADCC); format: cell-based
Excerpt: (§2) In contrast, binding of SR-1 IgG1 and IgG4β isotypes was detected presumably to the high affinity FcγRI. […] Aglycosylated chimeric mouse/human IgG1 antibodies have been reported to […] (Hybridoma. 1991 April; 10(2):211-7) and so these desired activities of hSR-1 aIgG1 are not expected.

c-Kit dimer = assay: Biacore binding to c-Kit dimer versus soluble monomer; set-up: species or system human
Chain of c-Kit dimer (P10721 26-509 limits assumed): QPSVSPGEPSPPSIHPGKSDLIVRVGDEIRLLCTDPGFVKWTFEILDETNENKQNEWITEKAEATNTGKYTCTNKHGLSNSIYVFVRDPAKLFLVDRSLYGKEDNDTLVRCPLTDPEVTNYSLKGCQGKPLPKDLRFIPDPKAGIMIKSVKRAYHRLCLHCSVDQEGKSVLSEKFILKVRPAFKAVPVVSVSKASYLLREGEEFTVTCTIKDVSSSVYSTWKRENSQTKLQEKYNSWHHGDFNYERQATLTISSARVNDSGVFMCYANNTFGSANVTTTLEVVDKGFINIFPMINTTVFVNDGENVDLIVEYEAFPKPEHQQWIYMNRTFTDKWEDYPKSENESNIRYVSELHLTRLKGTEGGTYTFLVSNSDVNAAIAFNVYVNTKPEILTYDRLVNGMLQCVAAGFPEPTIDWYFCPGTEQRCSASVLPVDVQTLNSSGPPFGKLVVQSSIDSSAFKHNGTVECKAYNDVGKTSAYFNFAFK
Excerpt: Activation of c-Kit upon binding by stem cell factor (SCF) leads to dimerization/oligomerization, autophosphorylation and receptor internalization, most likely through a clathrin-dependent pathway. The SR-1 monoclonal antibody binds the c-Kit dimer with 1000-fold higher affinity compared to the soluble c-Kit extra-cellular domain monomer as determined by Biacore.
Carbohydrates present on a glycoprotein can influence biological and functional properties. […] This is an important characteristic not predicted to be translated with certainty with the humanization and as the soluble c-Kit monomer is less likely to act as a sink for the antibody in vivo.

[6] = test system: U-937 cells expressing Fcγ receptor I=CD64, Fcγ receptor II=CD32 and Fcγ receptor III=CD16; assay: Non-specific FcR binding to U-937 cells; format: cell-based
Excerpt: as §2

[7] = Human dose projection (body surface area-based dose conversion); settings: equivalent dosing regimen, preliminary estimation
Experimental: The minimal effective dose in the wound PD model of mast cell expansion is <0.3 mg/Kg administered once weekly for 2 weeks in monkeys. Based on a body surface area-based dose conversion, the minimal effective dose in human is projected to be <0.1 mg/Kg with an equivalent dosing regiment. However, this is a preliminary estimation as the PK and the pharmacodynamic relationship between the degree and duration of c-kit inhibition in human by hSR-1 aIgG1 and clinical endpoints are unknown at this time. A more accurate projection will be made when more pharmacokinetic and pharmacodynamic data are available.

[8] = test system: basal lung and colon mast cells; assay: Depletion of basal lung and colon mast cells in monkey; format: in vivo
Experimental: as §1
[…] […] For practical reasons, basal pulmonary mast cells were evaluated on day 28 at the time of necropsy and the termination of the study.

[9] = test system: wound activated skin mast cells; assay: Wound pharmacodynamic model of mast cell expansion in monkey; settings: for Fold UT-7 IC50 (Ctrough) / Inhibition of activated skin mast cells: day 14; for minimal effective dose in the wound PD model: once weekly for 2 weeks in monkeys; for inhibition of wound activated expansion of mast cells: 3 weeks
[10] = test system: Cultured human mast cells derived from bone marrow CD34+ cells; assay: Cultured human mast cell assays (survival, c-Kit phosphorylation, aggregation); format: cell-based
[11] = Exposure after repeated once-weekly dosing; format: in vivo, African green monkeys; settings: preliminary exposure data
Excerpt: Based on preliminary exposure data of SR-1 and humanized antibodies in African green monkeys after repeated once-weekly dosing, humanized antibodies achieved higher exposures compared to SR-1. […] 1992; 35(3): 165-74.

c-Kit [12] = molecular target: T1, c-Kit; set-up: endogenous in cells; host or cells: MO7e cells; cultured human mast cells derived from bone marrow CD34+ cells; primary human CD34+ CD117+ bone marrow cells; UT-7 cells; settings: Broudy, J Cell Physiol. 1994; cited from earlier work
monkey c-Kit = assay: CD34+ bone marrow cell CFU assay, monkey; format: cell-based; settings: 1.0 ug/mL
Experimental: as §1

hematopoiesis = assay: Hematopoiesis in SR-1 dose-ranging study; format: in vivo, African green monkey
Experimental: (§3) SR-1 was used in dose-ranging studies from 3 to 30 mg/Kg administered once weekly for 4 weeks to determine the exposures required to inhibit hematopoiesis, spermatogenesis and active melanogenesis. A full blood panel including cell differentials was performed on blood samples taken at baseline, day 4, 7, 14, 21 and 28 after the start of the study. Analysis of freshly isolated blood samples was performed at the Queen Elizabeth Hospital Clinical Hematology lab, Barbados.
(§4) The effect of 3-30 mpk administered once weekly for 4 weeks on melanogenesis was also examined since there may be utility in melanoma. To assess the effects on activated melanocytes which may better reflect a disease state, hair was depilated to activate melanogenesis. […] In the 10 mg/Kg cohort, SR-1 exposures were >8000-fold the UT-7 IC50.

spermatogenesis = assay: Spermatogenesis in dose-ranging study; format: in vivo, monkey
melanocytes = assay: Melanogenesis (hair pigmentation after depilation) in dose-ranging study; format: in vivo, monkeys
Experimental: as §3, §4

[13] = IV, 3 mg/kg, male cynomolgus monkeys
[14] = SC, 3 mg/kg, male cynomolgus monkeys

In the case of “hSR-1 aIgG1: Humanized anti-c-Kit aglycosylated IgG1 antibody; kappa light chain SEQ ID NO: 2, heavy chain SEQ ID NO: 4”, the AUC0-tlast [1, 13] is reported as 9710 µg·h/mL, the C0 [1, 13] is reported as 103 µg/mL and the CL ([1]; IV, 3 mg/kg, calculated based on AUC0-tlast) is reported as “≦0.309 mL/hr/kg”. The AUC0-tlast [1, 14] was 7970 µg·h/mL, the Cmax [1, 14] was 36.4 µg/mL and the Tmax [1, 14] was 72 h. The PK time profile ([1]; single IV or SC 3 mg/kg) was “non-linear PK”, the “inhibition of SCF-mediated c-Kit phosphorylation and internalization” value (c-Kit in MO7e cells) was “potently inhibited” and the “agonism in c-Kit receptor proximal phosphorylation read-out” value (c-Kit in MO7e cells; antibody alone) was “no evidence of agonism”. For the same molecule, the “abnormalities on in vivo dosing” value [2] was “No unexpected abnormalities”, the “antagonism of SCF” value (c-Kit [3]) was “highly potent neutral antagonist” and the “agonism of c-Kit” value (c-Kit [3]; proximal and distal read-outs) was “no agonism”. For the same molecule, the “survival relative to baseline” value [4] was “inhibit survival below baseline”, the “neutralization of the synergistic effect of SCF on GM-CSF derived colony formation” value ([4]; 1.0 ug/mL) was “neutralization” and the “intrinsic agonistic survival activity” value ([4]; up to 10 ug/mL) was “no intrinsic agonistic survival activity”. The “complement dependent cytotoxic cell death” value [5] was “no complement dependent cytotoxic cell death”, the ADCC activity ([5]; predicted from lack of FcR binding) was “no ADCC activity” and the “binding to receptor dimer / membrane c-Kit versus monomer / soluble c-Kit” value (c-Kit dimer) was “higher affinity to the membrane c-Kit compared to soluble c-kit; also recorded: high affinity to the receptor dimer versus monomer”. For the same molecule, the “non-specific FcR binding” value [6] was “no detectable”, the “projected minimal effective dose in human” value [7] was less than 0.1 mg/kg and the “Depletion of basal colon mast cells” value ([8]; 0.3 mg/kg once weekly, day 14) was “no efficacy; also recorded: No effect”. The “Depletion of basal colon mast cells” value ([8]; 1.0 mg/kg once weekly, day 14) was greater than 65%, the “Depletion of basal colon mast cells” value ([8]; 3.0 mg/kg once weekly, day 14) was greater than 95% and the “Fold UT-7 IC50 (Ctrough)” value ([9]; 0.3 mg/kg once weekly) was greater than 200 fold. The “Fold UT-7 IC50 (Ctrough)” value ([9]; 1.0 mg/kg once weekly) was greater than 2000 fold, the “Inhibition of activated skin mast cells” value ([9]; 1.0 mg/kg once weekly) was greater than 95% and the “Fold UT-7 IC50 (Ctrough)” value ([9]; 3.0 mg/kg once weekly) was greater than 7000 fold. For the same molecule, the “Inhibition of activated skin mast cells” value ([9]; 3.0 mg/kg once weekly) was greater than 95%, the “minimal effective dose in the wound PD model” value [9] was less than 0.3 mg/kg and the “homotypic mast cell aggregation / clustering” value [10] was “no ability to mediate homotypic mast cell aggregation”. The “inhibition of SCF-dependent mast cell survival” value [10] was “inhibited”, the “c-Kit receptor phosphorylation mediated by the antibody” value ([10]; FIG. 3) was “did not mediate” and the “survival signal conferred to mast cells (agonist activity)” value ([10]; antibody alone) was “conferred no survival signal”. For the same molecule, the “exposure compared within group” value [11] was “equal best in group PK”.

B1: SR-1: Murine anti-human c-Kit antibody; light chain SEQ ID NO: 8, muIgG2a heavy chain SEQ ID NO: 10 (antibody, listed as Homo sapiens)
heavy: MGWSCIILFLVATATGVHSQVQLQQPGAELVKPGASVKMSCKASGYTFTSYNMHWVKQTPGQGLEWIGVIYSGNGDTSYNQKFKGKATLTADKSSSTAYMQINSLTSEDSAVYYCARERDTRFGNWGQGTLVTVSAAKTTAPSVYPLAPVCGDTTGSSVTLGCLVKGYFPEPVTLTWNSGSLSSGVHTFPAVLQSDLYTLSSSVTVTSSTWPSQSITCNVAHPASSTKVDKKIEPRGPTIKPCPPCKCPAPNLLGGPSVFIFPPKIKDVLMISLSPIVTCVVVDVSEDDPDVQISWFVNNVEVHTAQTQTHREDYNSTLRVVSALPIQHQDWMSGKEFKCKVNNKDLPAPIERTISKPKGSVRAPQVYVLPPPEEEMTKKQVTLTCMVTDFMPEDIYVEWTNNGKTELNYKNTEPVLDSDGSYFMYSKLRVEKKNWVERNSYSCSVVHEGLHNHHTTKSFSRTPGK
light: METDTLLLWVLLLWVPGSTGNIVLTQSPASLAVSLGLRATISCRASESVDIYGNSFMHWYQQKPGQPPKLLIYLASNLESGVPARFSGSGSRTDFTLTIDPVEADDAATYYCQQNNEDPYTFGGGTKLEIKRADAAPTVSIFPPSSEQLTSGGASVVCFLNNFYPKDINVKWKIDGSERQNGVLNSWTDQDSKDSTYSMSSTLTLTKDEYERHNSYTCEATHKTSTSPIVKSFNRNEC
In the case of B1, the “intrinsic activity at c-Kit” value (c-Kit [12]) is given as “some agonist-like activity”, the “functional potency at human c-Kit in CFU assay” value ([4]; 1.0 ug/mL) is given as “inhibition” and the “affinity for c-Kit dimer compared to soluble c-Kit extra-cellular domain monomer” value (c-Kit dimer; Biacore) is given as 1000 fold. The “functional potency at monkey c-Kit in CFU assay” value (monkey c-Kit) was “inhibition”, the “exposure levels as fold the UT-7 IC50” value (hematopoiesis; 30 mg/Kg once weekly over 4 weeks) was > 70,000 fold and the “impact on hematological parameters” value (hematopoiesis; 3 to 30 mg/Kg once weekly for 4 weeks, versus control and baseline) was “No significant impact”. For the same molecule, the RBCs (hematopoiesis; 4 weeks after dosing started) was “non-significant decreases”, the “CD117 positive hematopoietic stem cells” value (hematopoiesis; bone marrow) was “no depletion” and the “bone marrow histopathological analysis” value (hematopoiesis; monkey, in vivo) was “no difference between drug treated and control cohorts”. The “Ctrough PK level as fold the UT-7 cellular IC50” value ([8]; 3.0 mg/Kg once weekly, basal lung mast cell depletion) was greater than 200 fold, the “depletion of basal lung mast cells” value ([8]; 3.0 mg/Kg once weekly, day 28) was “depletion of basal lung mast cells was observed” and the “depletion of basal colon mast cells, time course” value ([8]; 3 mg/Kg to 30 mg/Kg once weekly, after 2 doses by day 14) was “maximally depleted”. The “Ctrough as fold the cell IC50 at depletion of basal mast cells” value ([8]; day 14) was greater than 800 fold, the “inhibition of wound activated expansion of mast cells” value ([9]; 0.3 mpk dose) was “partial inhibition” and the “inhibition of wound activated expansion of mast cells” value ([9]; 1 and 3 mg/Kg cohorts) was “maximal efficacy”. For the same molecule, the “effect on mast cells in wound activated model” value ([9]; FIG. 1) was “inhibits mast cells”, the “sustained Ctrough exposure (fold the IC50) required for maximal inhibition of wound-expanded mast cells” value ([9]; monkey, in vivo) was greater than 7 fold and the “minimal effective dose in the wound PD model” value [9] was less than 0.3 mg/kg. For the same molecule, the “effect on spermatogenesis at lowest dose” value (spermatogenesis; 0.3 mg/Kg once weekly) was “less than the maximal effect; also recorded: sub-maximal effect”, the “exposure as fold the UT-7 IC50” value (spermatogenesis; 0.3 mg/Kg once weekly) was 7 fold and > 7 fold and the inhibition of spermatogenesis (spermatogenesis; 0.3-30 mg/Kg) was “dose-dependent inhibition”. For the same molecule, the recovery of spermatogenesis (spermatogenesis; 9 months, all dosed animals) was “Normal spermatogenesis”, the “exposures as fold the UT-7 IC50” value (melanocytes; 10 mg/Kg cohort) was greater than 8000 fold and the “pigmentation of newly regrown hair” value (melanocytes; 10 mg/Kg cohort) was “No effect”. For the same molecule, the “pigmentation of newly regrown hair” value (melanocytes; 30 mg/Kg dose) was “inhibition of hair pigmentation to variable degrees”, the “normal hair color of the coat” value (melanocytes; 3-30 mpk once weekly for 4 weeks, any cohort) was “not visibly affected” and the “exposure (fold the cell IC50) required before qualitative impacts on pigmentation of newly regrown hair” value (melanocytes; monkey, in vivo) was greater than 8000 fold. For the same molecule, the “no effect dose on hair pigmentation” value (melanocytes; once weekly for 4 weeks) was 10 to 30 mg/kg.
